Measurements from US20160228506A1, “Compositions and Formulations for Prevention and Reduction of Tumorigenesis, Cancer Cell Proliferation and Invasion, and Methods of Production and Use Thereof in Cancer Treatment” (PRONUTRIA, INC., priority 2013, published 2016).
Positions count from the first letter of the chain named. In names and notes the source's numbering stands.

B1: SEQID-00099: nutritive polypeptide (protein, listed as Thermosynechococcus elongatus)
chain: MNQSEILEKVKAIVADQLSVDPEKVVPEASFAEDLNADSLDSVELIMALEEEFGVEIPDEEAEKLKTVQDVLDFINNKVAA
B2: SEQID-00302: nutritive polypeptide (protein)
chain: MAKKTVANLSASELSGKKVLVRADFNVPLDNGSISDDTRIRAALPTIQDLTSKGAKVILSSHFGRPQGQVVESMRLTPVAARLSELLGKTVKKCDDCIGEEVAVAVGAMSDGDVLLLENVRFHAAEEKNDPEFAKQLASVADLYVNDAFGTAHRAHASTEGVTKYLSPCVAGYLIEKELQFLQGAIESPQRPLAAIIGGSKVSSKIGVIEALLDKCDKLLLGGGMIFTFYKARGLSVGNSLVEEDKLELAKSLEAKAKEKGVTMLLPTDVVLADKFAADADSQTVSVEAIPDGWMGLDIGPDSVKVFQEALGDCKTVLWNGPMGVFEFEKFAAGTRAIAQTLAELTSTGTTTIIGGGDSVAAVEQLNLGEKMSHISTGGGASLELLEGKQLPGIVALDDA
modifications: Arthrospira platensis C1
notes: nutritive polypeptide
B3: SEQID-00546: protein of the 168 nutritive polypeptide library (protein, listed as Saccharomyces cerevisiae)
chain: MCSAGGIRRPIQIEEFKTAISGMSDMELAQIKTEIENSINHLQRSNARLGKYIAKLEGADDRLEADDSDDLENIDSGDLALYKDSVRENEIVLNNYNERVDALEQETVYRKTGHGKSKHEVEAKDNTNKGPDVDMDNSNVDVVTPNSIFI
modifications: source: /note="strain ATCC 204508 / S288c"
notes: protein of the 168 nutritive polypeptide library
B4: SEQID-00598: nutritive polypeptide naturally produced in Flaxseed, recombinantly expressed in E. coli (protein, listed as Linum usitatissimum)
chain: MSRRCPGKNAWPELVGKSGNMAAATVERENRNVHAIVLKEGSAMTKDFRCDRVWVIVNDHGVVTSVPHIT
B5: SEQID-00420: nutritive polypeptide (protein)
chain: AAAPLEKRSCTFTSASAAKSGKSSCSTITLDNIAVPAGETLDLTGLKKGTTVIFEGETTFGYKEWKGPLISMSGTDITVKQASGAKINCDGARWWDGKGSNGGKTKPKFFQAHKLDQSSITGLKVYNTPVQGFSILADHLTITDVTIDNSAGTSKGHNTDAFDIGQSTYITIDGATVYNQDDCLAINSGEHITFTNGYCDGGHGLSIGSIGGRSDNTVNDVTISNSKVLNSQNGVRIKTIYGKTGTVENVKFEDITLSDISKYGIVVEQDYENGSPTGTPTNGVKVEDITFKKVTGSVKSSGTDIYILCGSGSCSNWTWSGVDVTGGKKSSKCKNVPSGASCSD
modifications: Aspergillus niger; source: /note="strain CBS 513.88 / FGSC A1513"
B6: SEQID-00672 (BS): nutritive polypeptide (protein, listed as Saccharomyces cerevisiae)
chain: MSSSESIRMVLIGPPGAGKGTQAPNLQERFHAAHLATGDMLRSQIAKGTQLGLEAKKIMDQGGLVSDDIMVNMIKDELTNNPACKNGFILDGFPRTIPQAEKLDQMLKEQGTPLEKAIELKVDDELLVARITGRLIHPASGRSYHKIFNPPKEDMKDDVTGEALVQRSDDNADALKKRLAAYHAQTEPIVDFYKKTGIWAGVDASQPPATVWADILNKLGKD
modifications: source: /note="strain ATCC 204508 / S288c"
B7: SEQID-00678 (BS): nutritive polypeptide (protein, listed as Saccharomyces cerevisiae)
chain: B6 chain with R42K
modifications: source: /note="strain ATCC 204508 / S288c"
B8: SEQID-00102: nutritive polypeptide (protein, listed as Lactobacillus johnsonii)
chain: MTEEEIFNKIADMISERFSIDRDKITKDLNFQNDLDADSIDFVELVMDLEDTFGAEIPDDDAEKLQTVGEAVEYIKSHQN
B9: SEQID-00363 (E. coli): SEQID-00363 expressed recombinantly in E. coli (protein)
chain: ATLDSWLSNEATVARTAILNNIGADGAWVSGADSGIVVASPSTDNPDYFYTWTRDSGLVLKTLVDLFRNGDTSLLSTIENYISAQAIVQGISNPSGDLSSGAGLGEPKFNVDETAYTGSWGRPQRDGPALRATAMIGFGQWLLDNGYTSTATDIVWPLVRNDLSYVAQYWNQTGYDLWEEVNGSSFFTIAVQHRALVEGSAFATAVGSSCSWCDSQAPEILCYLQSFWTGSFILANFDSSRSGKDANTLLGSIHTFDPEAACDDSTFQPCSPRALANHKEVVDSFRSIYTLNDGLSDSEAVAVGRYPEDTYYNGNPWFLCTLAAAEQLYDALYQWDKQGSLEVTDVSLDFFKALYSDAATGTYSSSSSTYSSIVDAVKTFADGFVSIVETHAASNGSMSEQYDKSDGEQLSARDLTWSYAALLTANNRRNSVVPASWGETSASSVPGTCAATSAIGTYSSVTVTSWPSIVATGGTTTTATPTGSGSVTSTSKTTATASKTSTSTSSTSCTTPTAVAVTFDLTATTTYGENIYLVGSISQLGDWETSDGIALSADKYTSSDPLWYVTVTLPAGESFEYKFIRIESDDSVEWESDPNREYTVPQACGTSTATVTDTWR
modifications: Aspergillus niger
B10: SEQID-00407 (BS): α-amylase in Bacillus subtilis; Wild-type of Tables E37A and E38E (protein, listed as Bacillus subtilis)
chain: ETANKSNELTAPSIKSGTILHAWNWSFNTLKHNMKDIHDAGYTAIQTSPINQVKEGNQGDKSMSNWYWLYQPTSYQIGNRYLGTEQEFKEMCAAAEEYGIKVIVDAVINHTTSDYAAISNEVKSIPNWTHGNTQIKNWSDRWDVTQNSLLGLYDWNTQNTQVQSYLKRFLDRALNDGADGFRFDAAKHIELPDDGSYGSQFWPNITNTSAEFQYGEILQDSASRDAAYANYMDVTASNYGHSIRSALKNRNLGVSNISHYASDVSADKLVTWVESHDTYANDDEESTWMSDDDIRLGWAVIASRSGSTPLFFSRPEGGGNGVRFPGKSQIGDRGSALFEDQAITAVNRFHNVMAGQPEELSNPNGNNQIFMNQRGSHGVVLANAGSSSVSINTATKLPDGRYDNKAGAGSFQVNDGKLTGTINARSVAVLYPDDIAKAPHVFLENYKTGVTHSFNDQLTITLRADANTTKAVYQINNGPETAFKDGDQFTIGKGDPFGKTYTIMLKGTNSDGVTRTEKYSFVKRDPASAKTIGYQNPNHWSQVNAYIYKHDGSRVIELTGSWPGKPMTKNADGIYTLTLPADTDTTNAKVIFNNGSAQVPGQNQPGFDYVLNGLYNDSGLSGSLPH
modifications: source: /note="strain 168"
B11: SEQID-00220: nutritive polypeptide (protein, listed as Bos taurus)
chain: DTKKKVDDDLGTIENLEEAKKKLLKDVEVLSQRLEEKALAYDKLEKTKTRLQQELDDLLVDLDHQ
B12: SEQID-00418: nutritive polypeptide (protein)
chain: VPRVRRQGASSSFDYKSQIVRGVNLGGWLVTEPWITPSLYDSTGGGAVDEWTLCQILGKDEAQAKLSSHWSSFITQSDFDRMAQAGLNHVRIPIGYWAVAPIDGEPYVSGQIDYLDQAVTWARAAGLKVLVDLHGAPGSQNGFDNSGHRGPIQWQQGDTVNQTMTAFDALARRYAQSDTVTAIEAVNEPNIPGGVNEDGLKNYYYGALADVQRLNPSTTLFMSDGFQPVESWNGFMQGSNVVMDTHHYQVFDTGLLSMSIDDHVKTACSLATQHTMQSDKPVVVGEWTGALTDCAKYLNGVGNAARYDGTYMSTTKYGDCTGKSTGSVADFSADEKANTRRYIEAQLEAYEMKSGWLFWTWKTEGAPGWDMQDLLANQLFPTSPTDRQYPHQCS
modifications: Aspergillus niger; source: /note="strain CBS 513.88 / FGSC A1513"
B13: SEQID-00418 (E. coli): nutritive polypeptide (protein)
chain: B12 chain
modifications: Aspergillus niger; source: /note="strain CBS 513.88 / FGSC A1513"
B14: SEQID-00647: protein of the 168 nutritive polypeptide library (protein)
chain: MALSKIEEARQLNDDDLSEQILEIKKQLANLRLLKATGRLEKPHEIRHTRHRLSQLLTVERERQLPNQSPA
modifications: Arthrospira platensis C1
notes: as for B3
B15: SEQID-00098: nutritive polypeptide (protein, listed as Lactococcus lactis)
chain: MAVFEKVQDIIVDELGKEKEEVTLETSFEELDADSLDLFQIINDIEDEFDVEVDTEADMKTVADLVKYVENNK

test: Intact half-life during simulated gastric fluid (SGF) digestion; settings: SGF pH 1.5, pepsin:polypeptide 1:20 w/w, 37° C.; intact protein
Method: In this experiment the nutritive polypeptide was exposed to a series of proteases that are active in the stomach (pepsin) and intestine (trypsin and chymotrypsin), and the presence of intact protein was measured over time. Specifically, the nutritive polypeptide was first treated at a concentration of 2 g/L with simulated gastric fluid (SGF) (0.03 M NaCl, titrated with HCl to pH 1.5 with a final pepsin:polypeptide ratio of 1:20 w/w) at 37° C. Time points were sampled from the reaction and quenched by addition of 0.2 M Na2CO3. […] Time points were sampled from the reaction and quenched by addition of Trypsin/Chymotrypsin Inhibitor (Sigma) solution until 240 min.
Time point samples were analyzed for intact protein by chip electrophoresis, polyacrylamide gel electrophoresis, or western blot. For chip electrophoresis (Labchip GX II), samples were analyzed using a HT Low MW Protein Express LabChip® Kit (following the manufacturer's protocol). A protein ladder was loaded every 12 samples for molecular weight determination (kDa) and quantification. For polyacrylamide gel electrophoresis, samples (1 μg) were separated on a NuPAGE® Novex® Bis-Tris Precast gel (Life Technologies) according to the manufacturer's protocol. The gel was stained using SimplyBlue™ SafeStain (Invitrogen) and imaged using a Chemidoc XRS+ (BioRad) or transferred onto nitrocellulose membranes using the iBlot® Dry Blotting System (Life Technologies) and iBlot® Western Detection Kit (Life Technologies) according to the manufacturer's protocol. Proteins were detected by blotting with Anti-His [C-term]-HRP antibody diluted 3:5000 in Blok™-PO Blocking Buffer using the SNAP I.d.® Protein Detection System (Millipore) according to the manufacturer's protocol. Blots were treated with Luminata Classico Western HRP Substrate (Millipore) according to the manufacturer's protocol and imaged using chemiluminescent detection on the Molecular Imager® Gel Doc™ XR+ System (Bio-Rad). Quantification of intact protein was determined by densitometry using ImageLab (BioRad). For all analysis methods the relative concentration of the polypeptide at each time point (if detected) was plotted overtime and fit to an exponential curve to calculate the intact half-life.
Specifically, the t=0 (enzyme-free control) and t=2 min samples from the SGF digest were analyzed for intact protein as described by chip electrophoresis, SDS-PAGE, western blot, and/or LC-MS/MS. Relative quantities of polypeptides at each time point were determined and the percentage of intact protein remaining at t=2 was determined. Intact half-life values determined using this method are reported as greater or less than 2 min to indicate more or less than 50% of the protein remained intact at t=2 min, respectively.

Molecule | SGF Half-life (t½) [min]
B1 | 1
B2 | 0.2
B3 | <10
B4 | 0.5
B5 | 1.2
B6 | 0.3
B7 | 0.2
B8 | 0.6
B9 | <10
B10 | 0.2
B11 | 0.5
B12 | 0.2
B13 | 0.5
B14 | 0.2
B15 | 0.4

same assay, conditions: purified proteins, chip electrophoresis

Molecule | Half-life [min]
B4 | 0.5
B14 | 0.2

test: SGF digest of 168 nutritive polypeptide library, intact protein by LC-MS/MS; type: in vitro ADME; settings: 168 nutritive polypeptide library SGF digest, LC-MS/MS spectral counts
Summary of the method: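 Spectral-count ratios (10 min vs 0 min, peak gel fraction plus neighbours) give the percent of each protein left intact after SGF digestion of a pooled, IMAC-purified 168-member recombinant library. Samples were gel-fractionated, trypsinised in-gel and run on Orbitrap nanoLC-MS/MS, requiring two unique peptides at 1% FDR.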

Molecule | % Intact Protein at 10 min [%]
B3 | 0
B4 | 24.3
B14 | 12

same assay, conditions: 168 nutritive polypeptide library, LC-MS/MS

Molecule | % Remaining at 10 min [%]
B4 | 24.3
B14 | 12

test: Thermostability, temperature of aggregation (ProteoStat Thermal Shift); type: physicochemical; parameters: key to Tagg: temperature in °C; settings: Table E31D; heated 25° C. to 95° C.
Method: The thermostability of proteins in a buffer cocktail of Citric Acid and Dibasic Sodium Phosphate over a pH range of 2.8 to 7.1 (preparation described above in Table E31B) was determined using the ProteoStat® Thermal Shift Stability Kit (Enzo Life Sciences) according to the manufacturer's standard protocol. Briefly, protein solutions (˜10 mg/ml) containing 1× ProteoStat TS Detection Reagent were heated from 25° C. to 95° C. at a rate of 0.5° C. per 30 sec using a real-time PCR (rtPCR) thermocycler (BioRad) equipped with a plate reader (SynergyMx, Biotek) while monitoring the fluorescence with a Texas Red filter.

Molecule | Tagg (pH 7.1)
B1 | 64
B2 | 46
B8 | >95
B11 | >95

same assay, conditions: pH 7.1

Molecule | Tagg
B15 | >95
